What was measured:
Assay type in all cases: cell-based, Yarrowia
[1] = tested on: hexanoic acid; assay: GPS-PKC-MPT fusions, hexanoic acid feed in vivo assay (Example 13)
Experimental: Strain SB-00311 (HCS2, PKS1.1 and PKC1.1) was co-transformed with 1) a construct (pCL-SE-0274) for expression of HMGR and GPS1.1 and 2) a construct (pCL-SE-0406) for expression of a fusion protein that contains, from N- to C-terminus, GPS1.1 and MPT4 linked using the F11 linker sequence or a construct (pCL-SE-0474) for expression of a fusion protein that contains, from N- to C-terminus, GPS1.1, PKC1.1 and MPT4, each linked using the F11 linker sequence.
Transformants were assessed for CBGA production from hexanoic acid. Assay cultures consisted of YNBD+CAA media with 2.5 mM hexanoic acid. After 24 h, an additional 5 mM hexanoic acid was added to each assay culture. Cultures were quenched after 48 h total growth.
Overnight YPD (10 g/L yeast extract, 20 g/L peptone, 2% dextrose) cultures were inoculated from glycerol stocks of the appropriate strain and grown at 30° C. with 250 rpm shaking. Once cultures had reached an OD600 of 4-6, cultures were centrifuged at 500×g for 5 min, supernatants were discarded, and cell pellets were resuspended in equal volume of water. Resuspended cells were centrifuged at 500×g for 5 min, supernatants were discarded, and cells were resuspended in a volume (75 μL×OD×Vculture) of transformation cocktail (45% PEG-400, 0.1 M LiAc, 0.1 M DTT, and 25 ug/100 μL SS Salmon Sperm DNA). For each transformation, >1 μg of plasmid DNA was added to 55 μL cells/transformation cocktail and vortexed for 2 s. Transformations were incubated at 39° C. for 1 h with 250 rpm shaking. Transformations were resuspended in 750 μL YPD with 1 M sorbitol and recovered at 30° C. overnight with 250 rpm shaking. […] Precipitates were pelleted by centrifuging at 4600×g for 10 min and then 200 μL was transferred to fresh plates, sealed, and analyzed via HPLC.
All samples were quenched with equal volume of EtOH containing 0.2 mg/mL internal standard (3,5-Diisopropyl-2-hydroxybenzoic acid CAS #2215-21-6) centrifuged, and clarified solutions were analyzed by HPLC-MS […]

[2] = tested on: olivetolic acid; assay: MPT fusions with GPS1.1 vs unfused MPTs, OA feed (Example 8, Table 9); conditions: 2 mM olivetolic acid, 48 h quench
Summary of the method: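 Yeast strain sCL-SE-0128 carrying MPT or GPS1.1–MPT fusion plasmids, precultured 48 h in YNB/2% glucose/0.5% casamino acids/100 mM MES pH 6.5. Assay medium was the same plus 2 mM olivetolic acid, 30 °C. Cultures were ethanol-quenched at 48 h total growth, and CBGA and FCBGA were measured by HPLC-MS with internal standard; values are replicate means ± SD.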

[3] = tested on: divarinic acid; assay: GPS1.1 fusions of MPT21 mutants, DVA feed (Example 9, Table 12); conditions: 2 mM divarinic acid, 2% glucose, quenched after 48 h; strain sCL-SE-0128
Experimental: (§1) Overnight YPD (10 g/L yeast extract, 20 g/L peptone, 2% dextrose) cultures were inoculated from glycerol stocks of the appropriate strain and grown at 30° C. with 250 rpm shaking. Once cultures had reached an OD600 of 4-6, cultures were centrifuged at 500×g for 5 min, supernatants were discarded, and cell pellets were resuspended in equal volume of water. Resuspended cells were centrifuged at 500×g for 5 min, supernatants were discarded, and cells were resuspended in a volume (75 μL×OD×Vculture) of transformation cocktail (45% PEG-400, 0.1 M LiAc, 0.1 M DTT, and 25 ug/100 μL SS Salmon Sperm DNA). For each transformation, >1 μg of plasmid DNA was added to 55 μL cells/transformation cocktail and vortexed for 2 s. Transformations were incubated at 39° C. for 1 h with 250 rpm shaking. Transformations were resuspended in 750 μL YPD with 1 M sorbitol and recovered at 30° C. overnight with 250 rpm shaking. The next day, transformations were centrifuged at 500×g for 5 min, supernatants were discarded, and cell pellets were resuspended in 750 YPD. Resuspended transformations were plated on YPD with appropriate selection or YNBD (6.71 g/L yeast nitrogen base+nitrogen, 0.5% casamino acids, 2% dextrose) agar plates and grown at 30° C. for 2 days. Individual colonies were patched onto YPD plates with appropriate selection or YNBD plates and grown at 30° C. overnight. Patches were used to inoculate 0.5 mL YPD with appropriate selection or YNBD precultures in 96 w blocks and grown at 30° C. for 24-48 h with 1000 rpm shaking. For assays, 0.5 mL YPD with appropriate selection or YNBD cultures containing substrate were inoculated with 2 μL from precultures and grown at 30° C. for 2-4 days with 1000 rpm shaking with 2% glucose added every 24 h. Assay cultures were quenched by addition of 0.5 mL ethanol with 0.2% formic acid and 0.5 mg/mL pentyl-benzoic acid. Precipitates were pelleted by centrifuging at 4600×g for 10 min and then 200 μL was transferred to fresh plates, sealed, and analyzed via HPLC.
(§2) All samples were quenched with equal volume of EtOH containing 0.2 mg/mL internal standard (3,5-Diisopropyl-2-hydroxybenzoic acid CAS #2215-21-6) centrifuged, and clarified solutions were analyzed by HPLC-MS
(§3) • Column: 2.1×50 mm COSMOCORE PBr (Nacalai USA, Inc.) • Mobile Phase: A; 0.1% formic acid in water, B; 0.1% formic acid in acetonitrile • Flow: 0.45 mL/min • Temp: % 50 Celsius • Gradient: 20%B at 0 min, 70%B at 2.3 min, 89% B at 4.2 min, 20% B at 4.3 min, 20%B at 6 min

[4] = tested on: divarinic acid; assay: MPT fusions with GPS1.1 vs unfused MPTs, DVA feed (Example 9, Table 11); conditions: 2 mM divarinic acid
Experimental: As described below, plasmids pCL-SE-0406, pCL-SE-0664, pCL-SE-0663, pCL-SE-0662, pCL-SE-0380 (MPT4), pCL-SE-0337.MPT21, were transformed into strain sCL-SE-0128. Multiple colonies per transformation were precultured for 48 h in YNB containing glucose (2%), casamino acids (0.5%), and MES (100 mM pH 6.5). Pre-culture was used to inoculate assay medium comprised of YNB containing glucose (2%), casamino acids (0.5%), MES (100 mM pH 6.5), and divarinic acid (2 mM). Cultures were quenched after 48 h total growth and assayed for CBGVA and FCBGVA. Averages and standard deviations were calculated from replicates.
as §1, §2, §3

[5] = tested on: olivetolic acid; assay: GPS1.1 fusions of MPT21 mutants, OA feed (Example 8, Table 10); conditions: 3 mM olivetolic acid, 6% glucose, 48 h quench; strain sCL-SE-0128
[6] = 2% glucose, quenched after 48 h, strain sCL-SE-0128

Row | Molecule | CBGA ([1]; hexanoic acid 2.5 mM plus 5 mM after 24 h, 48 h quench, strain SB-00311 + pCL-SE-0274, average of 44 or 34 transformants) | production of CBGA compared to the GPS1.1-MPT4 double fusion ([1]; in words, hexanoic acid feed) | CBGA ([2]; 2% glucose, strain sCL-SE-0128) | FCBGA ([2]; 2% glucose, strain sCL-SE-0128) | CBGA/FCBGA ([2]; product ratio) | CBGVA [3] | FCBGVA [3] | CBGVA [4, 6] | FCBGVA [4, 6] | CBGVA/FCB ([4]; 48 h, product ratio) | CBGA [5] | FCBGA [5]
1 | GPS1.1-F11-PKC1.1-F11-MPT4: triple fusion of GPS1.1, PKC1.1 and MPT4 via F11 linkers, SEQ ID NO: 92 (protein, GPS1.1-F11-PKC1.1-F11-MPT4, geranyl diphosphate synthase, polyketide cyclase, membrane-bound prenyltransferase fusion protein) MSKAKFESVFPRISEELVQLLRDEGLPQDAVQWFSDSLQYNCVGGKLNRGLSVVDTYQLLTGKKELDDEEYYRLALLGWLIELLQAFWLVSDDIMDESKTRRGQPCWYLKPKVGMIAIWDAFMLESGIYILLKKHFRQEKYYIDLVELFHDISFKTELGQLVDLLTAPEDEVDLNRFSLDKHSFIVRYKTAYYSFYLPVVLAMYVAGITNPKDLQQAMDVLIPLGEYFQVQDDYLDNFGDPEFIGKIGTDIQDNKCSWLVNKALQKATPEQRQILEDNYGVKDKSKELVIKKLYDDMKIEQDYLDYEEEVVGDIKKKIEQVDESRGFKKEVLNAFLAKIYKRQKGGAEAAAKEAAAKAGGSGGGSGGGGSGGSGGGGSGGGGSMAVKHLIVLKFKDEITEAQKEEFFKTFVNLVNIIPAMKDVYWGKDVTQKNKEEGYTHIVEVTFESVETIQDYIIHPAHVGFGDVYRSFWEKLLIFDYTPRKGGAEAAAKEAAAKAGGSGGGSGGGGSGGSGGGGSGGGGSMSDNSIATKILNFGHTCWKLQRPYVVKGMISIACGLFGRELFNNRHLFSWGLMWKAFFALVPILSFNFFAAIMNQIYDVDIDRINKPDLPLVSGEMSIETAWILSIIVALTGLIVTIKLKSAPLFVFIYIFGIFAGFAYSVPPIRWKQYPFTNFLITISSHVGLAFTSYSATTSALGLPFVWRPAFSFIIAFMTVMGMTIAFAKDISDIEGDAKYGVSTVATKLGARNMTFVVSGVLLLNYLVSISIGIIWPQVFKSNIMILSHAILAFCLIFQTRELALANYASAPSRQFFEFIWLLYYAEYFVYVFI | 77.4 ± 32.4 µM | improved production of CBGA | – | – | – | – | – | – | – | – | – | –
2 | GPS1.1-F11-MPT21: fusion of GPS1.1 and MPT21 via F11 linker, SEQ ID NO: 25 (protein, GPS1.1-F11-MPT21, geranyl diphosphate synthase, recombinant membrane-bound prenyltransferase fusion protein) MSKAKFESVFPRISEELVQLLRDEGLPQDAVQWFSDSLQYNCVGGKLNRGLSVVDTYQLLTGKKELDDEEYYRLALLGWLIELLQAFWLVSDDIMDESKTRRGQPCWYLKPKVGMIAIWDAFMLESGIYILLKKHFRQEKYYIDLVELFHDISFKTELGQLVDLLTAPEDEVDLNRFSLDKHSFIVRYKTAYYSFYLPVVLAMYVAGITNPKDLQQAMDVLIPLGEYFQVQDDYLDNFGDPEFIGKIGTDIQDNKCSWLVNKALQKATPEQRQILEDNYGVKDKSKELVIKKLYDDMKIEQDYLDYEEEVVGDIKKKIEQVDESRGFKKEVLNAFLAKIYKRQKGGAEAAAKEAAAKAGGSGGGSGGGGSGGSGGGGSGGGGSMSDNSIATKILNFGHTCWKLQRPYVVKGMISIACGLFGKELLHNTNLISWGLMWKAFFALVPILSFNFFAAIMNQIYDVDIDRINKPDLPLVSGEMSIETAWILSIIVALTGLIVTIKLKSAPLFVFIYIFGIFAGFAYSVPPIRWKQNPSTNFLITISSHVGLAFTSYYASRAALGLPFELRPSFTFLLAFMTVMGMTIAFAKDISDIEGDAKYGVSTVATKLGARNMTFVVSGVLLLNYVAAILAGIIWPQAFNSNVMLLSHAILAFCLIFQTRELALANYASAPSRQFFEFIWLLYYAEYFVYVFI | – | – | 156 ± 13 µM | 52 ± 5 µM | 3.0 | 58 ± 7 µM | 6 ± 1 µM | 28 ± 2 µM | 4 ± 0 µM | 7.2 | 276 ± 17 µM | 89 ± 4 µM
